Measured values from paper PMC9062482, “Structural and genome-wide analyses suggest that transposon-derived protein SETMAR alters transcription and splicing”.

Assays:
[1] = target: SETMAR DNA-binding domain, residues 329 to 440 (C381R) (I359M) (L423M) (human); experiment: crystal structure; SETMAR DBD 329-440 (C381R, I359M, L423M) with brominated 25-mer TIR DNA duplex, protein:DNA 1:1.2, 50 mM Hepes pH 7.5, 150 mM NaCl, 1 mM DTT; hanging drops at 20 °C, 0.1 M magnesium formate, 15% PEG3350; 2.37 Å
[2] = target: T1, SETMAR DBD C381R I359M L423M (SeMet) (Homo sapiens, UniProt Q53H47 342-453, I372M;C394R;L436M); experiment: X-ray crystallography; Se-SAD phasing, 2.66 A; FA and competition: 50 mM Hepes pH 7.0, 150 mM NaCl, 1 mM DTT; temperature not stated. Crystals: 50 mM Hepes pH 7.5, 150 mM NaCl, 1 mM DTT; 0.1 M Mg formate, 15% PEG3350, 20 C; conditions: protein: recombinant; tags: none (His-SUMO removed); chain copies: 2; 25 bp, 3' overhang 1 nt on each strand (A and T)
T1 sequence: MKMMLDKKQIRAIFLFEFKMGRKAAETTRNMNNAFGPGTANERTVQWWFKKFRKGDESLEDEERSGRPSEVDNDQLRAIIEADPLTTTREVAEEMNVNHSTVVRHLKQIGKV

SETMAR DBD C381R = target: T2, SETMAR DBD C381R (Homo sapiens, UniProt Q53H47 342-453, C394R); experiment: X-ray crystallography; 2.37 A; FA and competition: 50 mM Hepes pH 7.0, 150 mM NaCl, 1 mM DTT; temperature not stated. Crystals: 50 mM Hepes pH 7.5, 150 mM NaCl, 1 mM DTT; 0.1 M Mg formate, 15% PEG3350, 20 C; conditions: protein: recombinant; tags: none (His-SUMO removed); chain copies: 2; 25 bp, 3' overhang 1 nt on each strand (A and T)
T2 sequence: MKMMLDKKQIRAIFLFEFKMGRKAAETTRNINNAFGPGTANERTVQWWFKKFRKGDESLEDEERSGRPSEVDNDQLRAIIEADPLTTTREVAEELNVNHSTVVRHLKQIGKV

SETMAR full-length WT [3] = target: T3, SETMAR full-length WT (Homo sapiens, UniProt Q53H47 14-684); experiment: competition (fluorescence anisotropy); 300 nM protein, 20 nM probe; FA and competition: 50 mM Hepes pH 7.0, 150 mM NaCl, 1 mM DTT; temperature not stated. Crystals: 50 mM Hepes pH 7.5, 150 mM NaCl, 1 mM DTT; 0.1 M Mg formate, 15% PEG3350, 20 C; conditions: protein: recombinant; chain copies: 2; blunt
T3 sequence: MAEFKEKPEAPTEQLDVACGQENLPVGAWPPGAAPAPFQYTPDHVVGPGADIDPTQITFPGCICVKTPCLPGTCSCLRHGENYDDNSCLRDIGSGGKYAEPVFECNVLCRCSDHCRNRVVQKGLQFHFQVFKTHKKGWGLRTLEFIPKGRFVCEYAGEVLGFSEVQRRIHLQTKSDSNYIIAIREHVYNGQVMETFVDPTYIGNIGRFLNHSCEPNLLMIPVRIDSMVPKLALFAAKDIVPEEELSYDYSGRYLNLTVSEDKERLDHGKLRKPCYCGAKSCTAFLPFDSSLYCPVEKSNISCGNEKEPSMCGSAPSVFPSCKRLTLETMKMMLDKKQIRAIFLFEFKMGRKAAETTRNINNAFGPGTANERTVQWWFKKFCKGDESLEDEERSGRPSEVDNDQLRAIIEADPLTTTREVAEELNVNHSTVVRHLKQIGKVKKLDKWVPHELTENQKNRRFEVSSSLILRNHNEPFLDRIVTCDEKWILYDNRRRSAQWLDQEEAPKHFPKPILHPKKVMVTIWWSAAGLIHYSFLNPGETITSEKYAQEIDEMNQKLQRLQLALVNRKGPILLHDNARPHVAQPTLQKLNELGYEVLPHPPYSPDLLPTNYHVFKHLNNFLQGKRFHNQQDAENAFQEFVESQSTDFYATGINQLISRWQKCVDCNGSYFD

SETMAR full-length WT [4] = target: T3, SETMAR full-length WT; experiment: fluorescence anisotropy; 10 nM probe; mutant comparison series; FA and competition: 50 mM Hepes pH 7.0, 150 mM NaCl, 1 mM DTT; temperature not stated. Crystals: 50 mM Hepes pH 7.5, 150 mM NaCl, 1 mM DTT; 0.1 M Mg formate, 15% PEG3350, 20 C; conditions: protein: recombinant; chain copies: 2; label: 5' rhodamine (C6 amino) on strand 2; blunt
SETMAR R432A = target: T4, SETMAR R432A (Homo sapiens, UniProt Q53H47 14-684, R445A); experiment: fluorescence anisotropy; 10 nM probe; FA and competition: 50 mM Hepes pH 7.0, 150 mM NaCl, 1 mM DTT; temperature not stated. Crystals: 50 mM Hepes pH 7.5, 150 mM NaCl, 1 mM DTT; 0.1 M Mg formate, 15% PEG3350, 20 C; conditions: protein: recombinant; chain copies: 2; label: 5' rhodamine (C6 amino) on strand 2; blunt
T4 sequence: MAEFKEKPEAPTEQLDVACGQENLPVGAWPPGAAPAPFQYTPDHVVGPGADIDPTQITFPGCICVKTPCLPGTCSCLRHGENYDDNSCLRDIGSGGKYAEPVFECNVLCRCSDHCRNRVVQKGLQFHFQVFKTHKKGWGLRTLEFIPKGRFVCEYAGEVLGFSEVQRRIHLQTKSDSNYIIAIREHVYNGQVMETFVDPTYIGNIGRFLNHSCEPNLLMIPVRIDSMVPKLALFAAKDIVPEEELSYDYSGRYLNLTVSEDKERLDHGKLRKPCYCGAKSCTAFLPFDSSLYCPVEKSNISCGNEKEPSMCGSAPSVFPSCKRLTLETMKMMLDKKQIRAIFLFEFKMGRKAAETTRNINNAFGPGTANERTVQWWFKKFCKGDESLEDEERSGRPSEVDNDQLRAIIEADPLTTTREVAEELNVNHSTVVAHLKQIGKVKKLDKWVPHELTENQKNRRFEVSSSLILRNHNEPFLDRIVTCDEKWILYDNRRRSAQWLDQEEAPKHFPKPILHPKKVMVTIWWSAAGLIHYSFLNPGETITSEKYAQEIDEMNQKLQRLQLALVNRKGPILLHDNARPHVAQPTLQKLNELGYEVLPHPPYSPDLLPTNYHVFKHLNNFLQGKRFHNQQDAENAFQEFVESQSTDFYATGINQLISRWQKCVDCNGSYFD

SETMAR R371A = target: T5, SETMAR R371A (Homo sapiens, UniProt Q53H47 14-684, R384A); experiment: as above; conditions: protein: recombinant; chain copies: 2; label: 5' rhodamine (C6 amino) on strand 2; blunt
T5 sequence: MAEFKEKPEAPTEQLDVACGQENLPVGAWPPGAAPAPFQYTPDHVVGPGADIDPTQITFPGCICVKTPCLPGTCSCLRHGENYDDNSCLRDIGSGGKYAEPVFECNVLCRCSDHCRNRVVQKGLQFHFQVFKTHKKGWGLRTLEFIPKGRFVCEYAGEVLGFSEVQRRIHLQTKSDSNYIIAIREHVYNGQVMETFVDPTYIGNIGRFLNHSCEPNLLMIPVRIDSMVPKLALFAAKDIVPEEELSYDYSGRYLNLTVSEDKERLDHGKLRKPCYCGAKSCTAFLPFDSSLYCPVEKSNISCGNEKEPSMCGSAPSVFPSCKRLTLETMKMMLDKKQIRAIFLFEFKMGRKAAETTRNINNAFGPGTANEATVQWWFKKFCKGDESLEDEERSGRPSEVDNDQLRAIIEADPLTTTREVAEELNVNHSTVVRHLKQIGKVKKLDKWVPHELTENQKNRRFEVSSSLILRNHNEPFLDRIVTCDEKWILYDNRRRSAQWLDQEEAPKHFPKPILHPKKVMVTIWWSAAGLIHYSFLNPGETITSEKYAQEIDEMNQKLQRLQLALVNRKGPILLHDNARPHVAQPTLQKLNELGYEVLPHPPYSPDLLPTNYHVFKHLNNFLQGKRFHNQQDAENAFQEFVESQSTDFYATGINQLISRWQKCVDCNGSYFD

SETMAR S428A = target: T6, SETMAR S428A (Homo sapiens, UniProt Q53H47 14-684, S441A); experiment: as above; conditions: protein: recombinant; chain copies: 2; label: 5' rhodamine (C6 amino) on strand 2; blunt
T6 sequence: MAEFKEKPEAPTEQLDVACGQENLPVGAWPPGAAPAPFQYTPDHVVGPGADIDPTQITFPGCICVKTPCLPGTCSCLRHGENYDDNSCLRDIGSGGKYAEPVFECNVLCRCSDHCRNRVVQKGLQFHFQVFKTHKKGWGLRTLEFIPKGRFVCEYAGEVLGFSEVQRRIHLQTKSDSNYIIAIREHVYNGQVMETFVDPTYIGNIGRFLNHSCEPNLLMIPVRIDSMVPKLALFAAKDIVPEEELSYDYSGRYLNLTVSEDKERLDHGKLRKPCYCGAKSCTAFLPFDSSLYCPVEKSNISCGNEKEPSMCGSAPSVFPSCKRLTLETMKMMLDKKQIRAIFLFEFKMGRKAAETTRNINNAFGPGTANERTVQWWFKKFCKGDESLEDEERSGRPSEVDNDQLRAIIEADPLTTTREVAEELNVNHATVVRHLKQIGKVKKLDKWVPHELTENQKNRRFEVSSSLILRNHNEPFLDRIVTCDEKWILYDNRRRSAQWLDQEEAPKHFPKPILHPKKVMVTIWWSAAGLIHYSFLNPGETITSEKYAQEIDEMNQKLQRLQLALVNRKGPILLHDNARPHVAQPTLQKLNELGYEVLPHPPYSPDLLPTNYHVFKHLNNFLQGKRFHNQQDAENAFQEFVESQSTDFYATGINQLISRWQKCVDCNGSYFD

SETMAR full-length WT [5] = target: T3, SETMAR full-length WT; experiment: fluorescence anisotropy; 20 nM probe; FA and competition: 50 mM Hepes pH 7.0, 150 mM NaCl, 1 mM DTT; temperature not stated. Crystals: 50 mM Hepes pH 7.5, 150 mM NaCl, 1 mM DTT; 0.1 M Mg formate, 15% PEG3350, 20 C; conditions: protein: recombinant; chain copies: 2; label: 5' rhodamine (C6 amino) on strand 2; blunt

In the case of “SETMAR DNA-binding domain, residues 329 to 440 (C381R) (I359M) (L423M) (domain or fragment)”, the stoichiometry N [1] is reported as 2.

B1: BrdU-substituted TIR crystallization duplex (dsDNA)
DNA 1: GGTTGGTGCAAAAGTAATTGCGGTTA
DNA 2: AACCGCAATTACTTTTGCACCAACCT
modifications: 5-bromodeoxyuridine replacing underlined Ts (positions not visible in text)
B1: binds [2].

B2: TIR crystallization duplex (dsDNA)
DNA 1: GGTTGGTGCAAAAGTAATTGCGGTTA
DNA 2: AACCGCAATTACTTTTGCACCAACCT
B2: binds (SETMAR DBD C381R).

B3: Hsmar1 TIR without sequence-specific binding sites (dsDNA)
DNA 1: TTAGGTTAATATAAAAGTAATTGTGGTT
DNA 2: AACCACAATTACTTTTATATTAACCTAA
B3: no binding (SETMAR full-length WT [3]).

B4: rhodamine Hsmar1 TIR probe (dsDNA)
DNA 1: TTAGGTTGGTGCAAAAGTAATTGCGGTT
DNA 2: AACCGCAATTACTTTTGCACCAACCTAA
B4 showed a Kd (SETMAR full-length WT [4]) of 42 ± 5 nM, a Kd (SETMAR R432A) of 302 ± 47 nM and a Kd (SETMAR R371A) of 521 ± 65 nM. It also gave a Kd (SETMAR S428A) of 485 ± 58 nM and a Kd (SETMAR full-length WT [5]) of 53 ± 4 nM.

B5: Mos1 TIR (dsDNA)
DNA 1: TCAGGTGTACAAGTATGAAATGTCGTTT
DNA 2: AAACGACATTTCATACTTGTACACCTGA
B5: no binding (SETMAR full-length WT [3]).
